These results are taken from article PMC5097169 (2016).

The target of assay [1] is Flag RbAp46 (Xenopus, recombinant) (Xenopus laevis (African clawed frog), UniProt Q8AVH1). Nature of the assay: GST-CENP-A tail resin pull-down (bridged), Coomassie; inferred from RbAp46-dependent recovery of Hat1 on the immobilized GST-CENP-A N-terminal tail (1-50); no direct two-protein test.
Assay [2] has as its target T1, GST fusion to Xenopus laevis CENP-A amino terminus (amino acids 1–50) (Xenopus laevis (African clawed frog), UniProt Q569M3).
T1 chain: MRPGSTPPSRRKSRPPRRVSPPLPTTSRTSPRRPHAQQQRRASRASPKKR
Nature of the assay: GST-tail resin pull-down, Coomassie.

B1: Flag Hat1 (Xenopus, recombinant) (protein)
chain: MEKKLAEYKCNTNEAIQLKLVRFPEDIEDESMTFNPEYSHQIFGDEEVAFGYKGLKILLYYSAGNLSTMFRVQYSSKVNDKFDLVQPDDVENKIHELIPAGFCSGTDDFITLLEKEVNFKPFGTIVHTYTVHNEDAGEDISYQIYKADMTSPGFREYHERLQTFMMWFIETASYIDVDDEKWDYFLVFEKYNKDGATLFATVGYMTVYNYYVYPDKTRPRVSQMLVLPPFQGEGHGAQLMETVHRYYVSAPNILDITAEDPSENFVRLRDFVLVKLCQNLPCFSPEKLLCGFSKEMVTEAQEKLKINKKHARRVYEILRLRATDMSDPEKSKAYRLDVKKRLVGPYKKNQREMAKMQQCLRPEELTNQMNQIDLNTQHEQLEESYQQLVEEYRRIVERLAQA
As for B1, in assay [1], the binding result is “binds”.

B2: Flag RbAp46 (Xenopus, recombinant) (protein)
chain: MANKEMFEDTVEERVINEEYKIWKKNTPFLYDLVMTHALEWPSLTVQWLPDVTRPEGKDYALHWLVLGTHTSDEQNHLVVARVQVPNDDAQFDASHYDSEKGEFGGFGSVSGKIETEIKINHEGEVNRARYMPQNPCIIATKTPSADVLVFDYTKHPSKPDPSGECSPDLRLRGHQKEGYGLSWNSNLSGHLLSASDDHTVCLWDISAGPKEGKVVDAKAVFTGHSAVVEDVAWHLLHESLFGSVADDQKLMIWDTRSNTTSKPSHSVDAHTAEVNCLSFNPYSEFILATGSADKTVALWDLRNLKLKLHSFESHKDEIFQVHWSPHNETILASSGTDRRLNVWDLSKIGEEQSAEDAEDGPPELLFIHGGHTAKISDFSWNPNEPWVICSVSEDNIMQIWQMAENIYNDEEPDIPASELEAQGS
For B2, the binding result in assay [2] is on record as “binds”.
